Source: paper PMC6377231, “Structure of a bacterial ATP synthase” (eLife, 2019)

B1: Bacillus PS3 ATP synthase subunit ε (natural protein, UniProt P07678 1-132, looked up)
chain: MKTIHVSVVTPDGPVYEDDVEMVSVKAKSGELGILPGHIPLVAPLEISAARLKKGGKTQYIAVSGGFLEVRPDNVTILAQAAERAEDIDVLRAKARKSGRTPLQSQQDDIDFKRAELALKRAMNRLSVAEMK
notes: ATP synthase subunit epsilon of Bacillus PS3, expressed from plasmid pTR-ASDS (Suzuki et al., 2002); source: E. coli strain DK8, plasmid pTR-ASDS; purified as part of the intact ATP synthase (GDN, HisTrap, Superose 6)
B2: Bacillus PS3 ATP synthase subunit c (natural protein)
chain: MSLGVLAAAIAVGLGALGAGIGNGLIVSRTIEGIARQPELRPVLQTTMFIGVALVEALPIIGVVFSFIYLGR
notes: ATP synthase subunit c of Bacillus PS3, expressed from plasmid pTR-ASDS (Suzuki et al., 2002); Forms the ring of 10 c-subunits in the FO region; also called c-ring; c10-ring; source: E. coli strain DK8, plasmid pTR-ASDS; purified as part of the intact ATP synthase (GDN, HisTrap, Superose 6); copies: 10

Experiments:
Assay in all cases: cryo-EM structure; intact Bacillus PS3 ATP synthase in GDN, three rotational states at 3.0, 3.0 and 3.2 Å; focused refinement of the membrane-embedded region at 3.3 Å
[1] = biological target: T1, Bacillus PS3 ATP synthase subunit γ (Bacillus PS3, UniProt P09222 5-286); settings: both partners purified
T1 construct: ATP synthase subunit gamma of Bacillus PS3, expressed from plasmid pTR-ASDS (Suzuki et al., 2002); source: E. coli strain DK8, plasmid pTR-ASDS; purified as part of the intact ATP synthase (GDN, HisTrap, Superose 6)

[2] = biological target: T2, Bacillus PS3 ATP synthase subunit α (Bacillus PS3, UniProt P09219 1-502); settings: both partners purified
T2 construct: ATP synthase subunit alpha of Bacillus PS3, expressed from plasmid pTR-ASDS (Suzuki et al., 2002); Three copies stand in the complex (α3β3γδε ab2c10); Residues in the model are in Supplementary file 1; also called αDP; source: E. coli strain DK8, plasmid pTR-ASDS; purified as part of the intact ATP synthase (GDN, HisTrap, Superose 6)

[3] = biological target: the molecule itself

T2 sequence (P09219 whole entry): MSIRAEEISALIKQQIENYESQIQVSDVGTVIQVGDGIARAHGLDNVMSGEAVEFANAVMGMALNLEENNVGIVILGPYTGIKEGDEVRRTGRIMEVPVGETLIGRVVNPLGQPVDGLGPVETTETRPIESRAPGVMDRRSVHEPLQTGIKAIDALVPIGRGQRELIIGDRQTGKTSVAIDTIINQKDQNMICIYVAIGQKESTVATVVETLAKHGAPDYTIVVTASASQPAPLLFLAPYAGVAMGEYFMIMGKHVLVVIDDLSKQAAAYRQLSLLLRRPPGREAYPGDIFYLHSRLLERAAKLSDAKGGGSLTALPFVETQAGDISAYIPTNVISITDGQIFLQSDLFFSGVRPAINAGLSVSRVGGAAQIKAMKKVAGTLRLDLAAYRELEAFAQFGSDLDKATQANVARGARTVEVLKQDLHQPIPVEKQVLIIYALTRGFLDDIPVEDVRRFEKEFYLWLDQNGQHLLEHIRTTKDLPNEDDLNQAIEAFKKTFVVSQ
T1 sequence (P09222 5-286): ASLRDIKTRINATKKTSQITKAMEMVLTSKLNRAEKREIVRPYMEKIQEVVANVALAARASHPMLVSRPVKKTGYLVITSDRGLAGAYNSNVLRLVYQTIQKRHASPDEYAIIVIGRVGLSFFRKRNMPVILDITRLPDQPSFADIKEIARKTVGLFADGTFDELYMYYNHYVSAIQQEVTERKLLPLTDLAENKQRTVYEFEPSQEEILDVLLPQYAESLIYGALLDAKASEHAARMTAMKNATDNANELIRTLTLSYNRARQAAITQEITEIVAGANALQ

Binder | binding result [1] | binding result [2] | stoichiometry N [3]
B1 | binds | binds | 
B2 |  |  | 10
